Our source for the self-cleavage values is the RNAGym collection of RNA variant scans (doi:10.7554/elife.80360).

The chains are these.
B1: Twister Ribozyme (parent)
chain: AACACUGCCAAUGCCGGUCCCAAGCCCGGAUAAAAGUGGAGGGGGCGG

This data set covers variants of B1. The experiment in a line: self-cleavage, relative activity (ratio to wild type); higher = more cleavage; co-transcriptional.
As to A10U G16A, the self-cleavage worked out at 0.89. Then A11G C14A, with 0.941. Take A11G C14G: the self-cleavage was 0.133. Then A11G C14U, with 0.943. As for U12C C15U, the self-cleavage stood at 1.09. Then A11U U12C, with 0.849. The result for A11U U12A reads 0.95; that for A11C G42C, 0.419. The result for A11U G44A reads 0.977. On to A11U C26U, for which the self-cleavage is 0.69.

Turning to A11U G43C, the self-cleavage worked out at 0.234. Then A11G C46U, with 0.943; and U12A C26A, with 0.763. The result for U12A C26U reads 0.563.

Turning to A11C C27A, the self-cleavage came to 0.176. The result for A11C C27U reads 0.352; that for A11C C27G, 0.0803; that for A11G G36U, 0.431. The result for U12A A34C reads 0.36; that for A11C C26A, 0.183. The result for A11C C26G reads 0.08; that for U12A G17C, 0.114; that for U12C A34C, 0.382. Consider A10U A40G, for which the self-cleavage stood at 0.191. For A11G U18A, the self-cleavage was determined as 0.61. For the variant A11G U18C, the self-cleavage is 0.382.

Take A11G G44C: the self-cleavage turned out to be 0.784.

A11U C46U: the self-cleavage stood at 0.914. Then A11U C46G, with 0.978; and A11G G39C, with 0.119. For A11G G39A, the self-cleavage came to 0.477. The result for A11U G36C reads 0.573; that for A11U G36U, 0.849. Then A10U C14G, with 0.244; and A10U C14A, with 0.824; and A11C C14G, with 0.164.

For A11C C19G, the self-cleavage amounted to 0.138.

As for A11C C19A, the self-cleavage is 0.136.

As for A11U G47A, the self-cleavage came out at 0.937. Regarding A11U A35C, the self-cleavage was determined as 0.997. Then A11U A35U, with 1.12; and A10U G29A, with 1.08. Regarding A10U G29C, the self-cleavage was determined as 0.617. The result for A10U C26A reads 0.607; that for A10U C26U, 0.437. Then A10U C26G, with 0.264; and A11U G39C, with 0.149; and A11U G39U, with 0.279.

For A11G A35G, the self-cleavage amounted to 0.826. Then A11G A35U, with 0.941; and U12C C26G, with 0.179. Then A11C G38A, with 0.768; and A11C G38C, with 0.731. Then A11C G38U, with 1.03. With U12A C27U, the self-cleavage was determined as 0.945.

Turning to U12A C27A, the self-cleavage was 0.744. Then U12A A33U, with 1.14; and A11U G48U, with 1.12; and A11U G48A, with 0.951. Consider A11U G48C, for which the self-cleavage amounted to 1.12. For the variant A11G A34U, the self-cleavage amounted to 0.913. Then A11G A34C, with 0.353; and A11G C19A, with 0.221; and A10U U12G, with 0.759.

Consider A10U U12C, for which the self-cleavage amounted to 0.931. With A11U C27G, the self-cleavage is 0.104. With A11U C27A, the self-cleavage turned out to be 0.66. With A11U C27U, the self-cleavage is 0.894. Then A11U U37C, with 0.583. The result for A11U U37A reads 1.01; that for A11U U37G, 0.953. U12A U37C: the self-cleavage stood at 0.727. On to U12A U37A, for which the self-cleavage stood at 0.918.

In the case of U12C A30G, the self-cleavage came to 0.712. Then U12C A30U, with 1.04; and A11C G16C, with 0.187. In the case of U12C C46G, the self-cleavage came out at 0.705.

As for U12C C46A, the self-cleavage turned out to be 0.903. With U12A U31C, the self-cleavage is 1.13.

Regarding U12A U31A, the self-cleavage came out at 0.679. Then U12A U31G, with 0.961; and A11C G29C, with 0.668; and A10U G13U, with 0.489. With A11G U31A, the self-cleavage was 0.348. Consider A11G U31G, for which the self-cleavage is 1.1.

For the variant A11G U31C, the self-cleavage was found to be 0.736. The result for U12A G47C reads 0.751; that for A11C G41A, 0.336. U12C G28U: the self-cleavage amounted to 0.88. The result for U12A G13C reads 0.811.

For U12A G13A, the self-cleavage is 0.89. The result for A11U G16C reads 0.532; that for A11U G16A, 0.804.

Take U12C C21A: the self-cleavage came out at 0.124. In the case of A11C U31C, the self-cleavage worked out at 0.876. The result for A11G G38C reads 0.683. In the case of A11G G38U, the self-cleavage turned out to be 0.613. Turning to A11G G38A, the self-cleavage was found to be 0.824. Turning to A11C A23U, the self-cleavage was found to be 0.149. Then A11C A23G, with 0.249.

As to A11C G43C, the self-cleavage turned out to be 0.159. A11C G43U: the self-cleavage stood at 0.252.

For the variant U12C G29U, the self-cleavage turned out to be 0.746. The result for U12C G29C reads 0.877; that for A10U A11U, 1.14. For A10U A11G, the self-cleavage turned out to be 1.09.

As for A10U A11C, the self-cleavage was found to be 1.03.

For the variant A10U A23U, the self-cleavage stood at 0.632.

For the variant A11G C26U, the self-cleavage worked out at 0.466. Then A11G C26G, with 0.234; and U12A A30G, with 1.01. Then A11C C20A, with 0.129; and U12C A23U, with 0.554; and U12C A23C, with 0.234. Regarding A11G A33C, the self-cleavage worked out at 0.836.

With A11G A33G, the self-cleavage came out at 0.84. For U12A G28C, the self-cleavage is 1.02. Then U12A G28U, with 1.06. Then A10U G43U, with 0.501; and A10U G43A, with 0.373; and A10U G43C, with 0.2. For A10U G28C, the self-cleavage is 0.768.

Consider A10U G28A, for which the self-cleavage came to 0.885. With A11U A22G, the self-cleavage worked out at 0.399. Then A11U A22C, with 1.17; and U12C A35U, with 0.91. The result for U12C A35G reads 0.837; that for U12A C14G, 0.0875.

Take U12A C14A: the self-cleavage was 0.997. Turning to A11C U12A, the self-cleavage came out at 0.907.

In the case of A11C U12G, the self-cleavage is 0.971.

For the variant A11C U12C, the self-cleavage came out at 0.79. As for A11U A33C, the self-cleavage came to 0.909. In the case of A11U A33G, the self-cleavage amounted to 0.839. Consider U12A G24U, for which the self-cleavage is 0.172. Regarding U12A G24C, the self-cleavage turned out to be 0.097. Then A11C U18G, with 0.0822; and A11C U18A, with 0.159; and A11C U18C, with 0.154. Then U12A G45C, with 0.643.

Take U12A G45A: the self-cleavage came out at 1.09.

As to A11C A32U, the self-cleavage is 0.831.

Regarding A11C A32C, the self-cleavage worked out at 0.769.

Turning to A10U A35C, the self-cleavage stood at 1.16. The result for A10U A35G reads 0.808; that for A11U C25U, 1.03; that for A11U C25A, 0.139. Take A11U G42C: the self-cleavage turned out to be 0.623. Regarding A11U G42U, the self-cleavage is 0.33. For the variant A11U G42A, the self-cleavage came out at 0.557. The result for A11C G47A reads 0.836. Take A11C G47C: the self-cleavage was determined as 0.648. The result for A11C G47U reads 0.977; that for U12A G43C, 0.255. As for A11C A35G, the self-cleavage was 0.574. The result for A11C A35U reads 0.942. Consider A11C A35C, for which the self-cleavage stood at 0.886. The result for U12A A40C reads 0.291; that for U12C G38U, 0.781; that for U12A G38U, 1.01. The result for A11C G28U reads 0.563; that for A11C G28A, 0.656; that for U12C C20U, 0.695. With U12C C20A, the self-cleavage came out at 0.128.

As to U12C G24A, the self-cleavage was 0.0718.

Consider A10U G38C, for which the self-cleavage stood at 0.933. For A10U G38A, the self-cleavage came out at 1.04.
